The values below come from publication PMC12262048, “Nodal modulator (NOMO) is a force-bearing transmembrane protein required for muscle differentiation” (The Journal of Cell Biology, 2025).

Data set [1] has as its target T1, His6-Ig 1–2 (NOMO1 Ig-like domains 1–2) (human).
T1 chain: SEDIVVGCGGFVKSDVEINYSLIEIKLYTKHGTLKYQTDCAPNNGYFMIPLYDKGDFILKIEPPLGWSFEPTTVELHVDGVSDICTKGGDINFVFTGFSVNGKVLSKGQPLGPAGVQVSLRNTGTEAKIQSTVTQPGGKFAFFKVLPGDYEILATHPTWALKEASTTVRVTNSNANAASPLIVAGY
Description: ITC; VP-ITC, 25°C; 300 µM His6-Ig 10–11 injected from the syringe into the cell with 20 µM His6-Ig 1–2 or His6-Ig 1–2^3-Mut; 50 mM Tris-HCl pH 7.5, 100 mM NaCl, 5 mM MgCl2, 5 mM CaCl2; n = 3. As to conditions: both partners purified. Background: ITC needs no label: the signal is the heat of the interaction.

Data set [2] concerns the molecule itself. The experiment in a line: SEC-MALS; room temperature; 50 mM MES pH 6.0, 150 mM KCl, 5 mM CaCl2, 5 mM MgCl2, 2% glycerol, 0.05% DDM; 1–1.5 mg/ml; molar mass corrected for detergent. (In gel filtration, larger molecules generally elute earlier.)
The target in data set [3] is T2, His6-Ig 10–11 (NOMO1 Ig-like domains 10–11) (human).
T2 chain: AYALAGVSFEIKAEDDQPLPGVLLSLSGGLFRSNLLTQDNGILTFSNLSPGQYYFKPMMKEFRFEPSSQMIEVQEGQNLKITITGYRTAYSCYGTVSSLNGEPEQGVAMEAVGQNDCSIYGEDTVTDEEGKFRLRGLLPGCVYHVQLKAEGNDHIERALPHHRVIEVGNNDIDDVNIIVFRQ
Description: ITC.

What is called Kd is the free concentration of one partner at which half of the binding sites on the other are occupied at equilibrium, for simple one-to-one binding. A high value points to a looser complex. In general, stoichiometry N refers to a count of units in the complex or per binding partner.

Values joined by “and” are separate entries in the source; they are usually repeats but may differ in a detail not shown here. Identical values can stand only once.

B1: His6-Ig 10–11 (NOMO1 Ig-like domains 10–11) (domain or fragment)
chain: AYALAGVSFEIKAEDDQPLPGVLLSLSGGLFRSNLLTQDNGILTFSNLSPGQYYFKPMMKEFRFEPSSQMIEVQEGQNLKITITGYRTAYSCYGTVSSLNGEPEQGVAMEAVGQNDCSIYGEDTVTDEEGKFRLRGLLPGCVYHVQLKAEGNDHIERALPHHRVIEVGNNDIDDVNIIVFRQ
modifications: N-terminal His6 tag omitted; limits not given, set from Ig fold boundaries and the ~20 kD size of Ig 10-11 / N-terminal His6 tag omitted; limits not given, taken from signal peptide end to the Ig
The molecule B1 gave a Kd in data set [1] of 1830 ± 840 nM.

B2: FL WT NOMO (NOMO1^WT-FLAG) (natural protein, human, UniProt Q15155 32-1222, looked up)
chain: SEDIVVGCGGFVKSDVEINYSLIEIKLYTKHGTLKYQTDCAPNNGYFMIPLYDKGDFILKIEPPLGWSFEPTTVELHVDGVSDICTKGGDINFVFTGFSVNGKVLSKGQPLGPAGVQVSLRNTGTEAKIQSTVTQPGGKFAFFKVLPGDYEILATHPTWALKEASTTVRVTNSNANAASPLIVAGYNVSGSVRSDGEPMKGVKFLLFSSLVTKEDVLGCNVSPVPGFQPQDESLVYLCYTVSREDGSFSFYSLPSGGYTVIPFYRGERITFDVAPSRLDFTVEHDSLKIEPVFHVMGFSVTGRVLNGPEGDGVPEAVVTLNNQIKVKTKADGSFRLENITTGTYTIHAQKEHLYFETVTIKIAPNTPQLADIIATGFSVCGQISIIRFPDTVKQMNKYKVVLSSQDKDKSLVTVETDAHGSFCFKAKPGTYKVQVMVPEAETRAGLTLKPQTFPLTVTNRPMMDVAFVQFLASVSGKVSCLDTCGDLLVTLQSLSRQGEKRSLQLSGKVNAMTFTFDNVLPGKYKISIMHEDWCWKNKSLEVEVLEDDMSAVEFRQTGYMLRCSLSHAITLEFYQDGNGRENVGIYNLSKGVNRFCLSKPGVYKVTPRSCHRFEQAFYTYDTSSPSILTLTAIRHHVLGTITTDKMMDVTVTIKSSIDSEPALVLGPLKSVQELRREQQLAEIEARRQEREKNGNEEGEERMTKPPVQEMVDELQGPFSYDFSYWARSGEKITVTPSSKELLFYPPSMEAVVSGESCPGKLIEIHGKAGLFLEGQIHPELEGVEIVISEKGASSPLITVFTDDKGAYSVGPLHSDLEYTVTSQKEGYVLTAVEGTIGDFKAYALAGVSFEIKAEDDQPLPGVLLSLSGGLFRSNLLTQDNGILTFSNLSPGQYYFKPMMKEFRFEPSSQMIEVQEGQNLKITITGYRTAYSCYGTVSSLNGEPEQGVAMEAVGQNDCSIYGEDTVTDEEGKFRLRGLLPGCVYHVQLKAEGNDHIERALPHHRVIEVGNNDIDDVNIIVFRQINQFDLSGNVITSSEYLPTLWVKLYKSENLDNPIQTVSLGQSLFFHFPPLLRDGENYVVLLDSTLPRSQYDYILPQVSFTAVGYHKHITLIFNPTRKLPEQDIAQGSYIALPLTLLVLLAGYNHDKLIPLLLQLTSRLQGVRALGQAASDNSGPEDAKRQAKKQKTRRT
notes: NOMO1 (nodal modulator 1), human, full length; Results and legend call it NOMO-FLAG, the methods Flag-NOMO^WT: the end of the tag is not clear; also called WT NOMO-FLAG; Flag-NOMO^WT; source: Expi293F, transfected, purified (anti-FLAG M2 beads, FLAG peptide elution, SEC) in DDM
Turning to B2, in data set [2], the “stoichiometry N” value turned out to be 2.

B3: NOMOr^4-Mut-FLAG (FL NOMO1 K66E, D70K, D121K, K931E) (natural protein, human, UniProt Q15155 32-1222, looked up)
chain: SEDIVVGCGGFVKSDVEINYSLIEIKLYTKHGTLEYQTKCAPNNGYFMIPLYDKGDFILKIEPPLGWSFEPTTVELHVDGVSDICTKGGKINFVFTGFSVNGKVLSKGQPLGPAGVQVSLRNTGTEAKIQSTVTQPGGKFAFFKVLPGDYEILATHPTWALKEASTTVRVTNSNANAASPLIVAGYNVSGSVRSDGEPMKGVKFLLFSSLVTKEDVLGCNVSPVPGFQPQDESLVYLCYTVSREDGSFSFYSLPSGGYTVIPFYRGERITFDVAPSRLDFTVEHDSLKIEPVFHVMGFSVTGRVLNGPEGDGVPEAVVTLNNQIKVKTKADGSFRLENITTGTYTIHAQKEHLYFETVTIKIAPNTPQLADIIATGFSVCGQISIIRFPDTVKQMNKYKVVLSSQDKDKSLVTVETDAHGSFCFKAKPGTYKVQVMVPEAETRAGLTLKPQTFPLTVTNRPMMDVAFVQFLASVSGKVSCLDTCGDLLVTLQSLSRQGEKRSLQLSGKVNAMTFTFDNVLPGKYKISIMHEDWCWKNKSLEVEVLEDDMSAVEFRQTGYMLRCSLSHAITLEFYQDGNGRENVGIYNLSKGVNRFCLSKPGVYKVTPRSCHRFEQAFYTYDTSSPSILTLTAIRHHVLGTITTDKMMDVTVTIKSSIDSEPALVLGPLKSVQELRREQQLAEIEARRQEREKNGNEEGEERMTKPPVQEMVDELQGPFSYDFSYWARSGEKITVTPSSKELLFYPPSMEAVVSGESCPGKLIEIHGKAGLFLEGQIHPELEGVEIVISEKGASSPLITVFTDDKGAYSVGPLHSDLEYTVTSQKEGYVLTAVEGTIGDFKAYALAGVSFEIKAEDDQPLPGVLLSLSGGLFRSNLLTQDNGILTFSNLSPGQYYFKPMMEEFRFEPSSQMIEVQEGQNLKITITGYRTAYSCYGTVSSLNGEPEQGVAMEAVGQNDCSIYGEDTVTDEEGKFRLRGLLPGCVYHVQLKAEGNDHIERALPHHRVIEVGNNDIDDVNIIVFRQINQFDLSGNVITSSEYLPTLWVKLYKSENLDNPIQTVSLGQSLFFHFPPLLRDGENYVVLLDSTLPRSQYDYILPQVSFTAVGYHKHITLIFNPTRKLPEQDIAQGSYIALPLTLLVLLAGYNHDKLIPLLLQLTSRLQGVRALGQAASDNSGPEDAKRQAKKQKTRRT
notes: NOMO1, human, full length, four charge-reversal mutations at the Ig 1/10/11 interface; Results and legend call it -FLAG, the methods Flag-NOMO^4-Mut: the end of the tag is not clear; also called NOMO^4Mut-FLAG; Flag-NOMO^4-Mut; source: Expi293F, transfected, purified (anti-FLAG M2 beads, FLAG peptide elution, SEC) in DDM
For the molecule B3, the “stoichiometry N” value in data set [2] turned out to be 2.

B4: His6-Ig 1–2 (NOMO1 Ig-like domains 1–2) (domain or fragment)
chain: SEDIVVGCGGFVKSDVEINYSLIEIKLYTKHGTLKYQTDCAPNNGYFMIPLYDKGDFILKIEPPLGWSFEPTTVELHVDGVSDICTKGGDINFVFTGFSVNGKVLSKGQPLGPAGVQVSLRNTGTEAKIQSTVTQPGGKFAFFKVLPGDYEILATHPTWALKEASTTVRVTNSNANAASPLIVAGY
modifications: N-terminal His6 tag omitted; limits not given, taken from signal peptide end to the Ig 2/Ig 3 boundary N-terminal His6 tag omitted; limits not given, set from Ig fold boundaries and the ~20 kD size of Ig 10-11
Consider B4, for which the dissociation constant Kd in data set [3] is 2800 nM and 1400 nM and 1300 nM.
